Data as given in PMC10238197, “Deafness‐Associated ADGRV1 Mutation Impairs USH2A Stability through Improper Phosphorylation of WHRN and WDSUB1 Recruitment” (Advanced Science, 2023).
Values belong to the molecule of their own block, whether it stands above or below them.

Tests used:
[1] = target: WHRN with PDZ2 deleted (mouse) (UniProt Q80VW5); test: co-IP; cotransfected HEK293 cells, starved 12 h, lysed in 50 mM Tris-HCl pH 7.4, 150 mM NaCl, 1% Triton, 1% NP-40, 2 mM EDTA; anti-Flag M2 or anti-Myc antibody-conjugated agarose, 4 °C overnight; blots against the tags
[2] = target: T1, WHRN-PDZ1 domain, purified (mouse, UniProt Q80VW5 137-225); test: SPR; BiaCore T200; WHRN-PDZ1 or WHRN-PDZ2 immobilised on a CM5 chip, peptide as analyte in serial dilutions, 120 s association and 120 s dissociation; 10 mM HEPES, 150 mM NaCl, 0.05% Surfactant P20, 0.01% DDM, 0.002% CHS, pH 7.4; settings: both partners purified
T1 construct: first PDZ domain of whirlin (WHRN), mouse; 13C,15N- or 15N-labelled for NMR; Residues up to A222 were assigned; source: purified protein
T1 sequence: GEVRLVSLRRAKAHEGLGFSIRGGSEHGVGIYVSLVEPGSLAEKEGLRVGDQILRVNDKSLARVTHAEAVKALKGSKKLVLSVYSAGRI

[3] = target: T1, WHRN-PDZ1 domain, purified; test: ITC; ITC200; purified PDZ protein 50 uM, peptide 1 mM; 20 mM Tris, 200 mM NaCl, 2 mM EDTA, pH 7.4; settings: both partners purified
[4] = target: T2, WHRN-PDZ2 domain, purified (mouse); test: SPR; BiaCore T200; WHRN-PDZ1 or WHRN-PDZ2 immobilised on a CM5 chip, peptide as analyte in serial dilutions, 120 s association and 120 s dissociation; 10 mM HEPES, 150 mM NaCl, 0.05% Surfactant P20, 0.01% DDM, 0.002% CHS, pH 7.4
T2 sequence (Q80VW5 whole entry, looked up): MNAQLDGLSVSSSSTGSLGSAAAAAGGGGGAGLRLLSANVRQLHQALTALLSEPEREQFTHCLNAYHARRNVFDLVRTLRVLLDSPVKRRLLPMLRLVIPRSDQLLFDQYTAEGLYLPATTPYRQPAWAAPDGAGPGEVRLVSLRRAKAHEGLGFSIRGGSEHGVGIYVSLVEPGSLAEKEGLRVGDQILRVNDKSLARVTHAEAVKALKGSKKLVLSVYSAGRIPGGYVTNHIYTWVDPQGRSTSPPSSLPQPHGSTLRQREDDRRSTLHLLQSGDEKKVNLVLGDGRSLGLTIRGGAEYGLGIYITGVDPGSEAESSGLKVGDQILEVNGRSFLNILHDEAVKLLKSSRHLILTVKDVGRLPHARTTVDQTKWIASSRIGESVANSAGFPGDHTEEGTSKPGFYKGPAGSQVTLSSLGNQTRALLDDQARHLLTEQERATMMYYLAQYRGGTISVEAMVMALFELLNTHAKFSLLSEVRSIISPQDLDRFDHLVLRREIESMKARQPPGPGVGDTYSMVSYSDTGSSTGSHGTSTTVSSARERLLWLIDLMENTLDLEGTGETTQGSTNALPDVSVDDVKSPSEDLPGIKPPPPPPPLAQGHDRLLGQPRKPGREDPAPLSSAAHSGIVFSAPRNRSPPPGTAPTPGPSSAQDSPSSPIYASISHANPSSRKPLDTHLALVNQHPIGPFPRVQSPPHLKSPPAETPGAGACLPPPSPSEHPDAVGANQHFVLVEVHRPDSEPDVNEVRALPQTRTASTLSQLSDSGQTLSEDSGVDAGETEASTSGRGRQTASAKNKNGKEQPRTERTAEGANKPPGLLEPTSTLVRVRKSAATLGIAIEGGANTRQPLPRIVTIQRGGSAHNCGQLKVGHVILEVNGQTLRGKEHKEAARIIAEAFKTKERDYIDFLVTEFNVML

- decrease of co-immunoprecipitated ADGRV1 against WT WHRN [1]: 85%
Molecule: ADGRV1 of the PDZ-truncation co-IP (Figure 6b,c) (from UniProt Q8VHN7 4333-6298) (receptor)

- Kd [2]: 23 ± 2.01 µM
- Kd [3]: 28.4 ± 4.2 µM
B1: USH2Ap, 10-residue C-terminal tail peptide of USH2A harboring the PDZ-binding motif (peptide, UniProt Q2QI47 5184-5193, looked up)
peptide: EHTAFTDTHL
notes: also called USH2A C-terminal peptide; source: synthetic peptide

- Kd [4]: 61.2 µM
Molecule: RRIPIADTHL [ADGRV1p, 10-residue C-terminal tail peptide of ADGRV1 harboring the PDZ-binding motif]
